# From the DeepSol protein solubility set
# Test: soluble on expression in E. coli; label from the status in PepcDB or PDB records
row,Sequence,soluble on expression in E. coli
1,MPVRYSGFDYDGCVGVTNLINIVAQNPKLAQRIRETSNYYTKEVALIASNRQSDRDDKRNARSNGNGSCFIQIQKLCTDLGMEFDPFLLADAYNLVPAGTSLHEATNPANGAKIQNGWLHDKSKASLVYAHMQRASSLEAREQIDYFFYDDREDILEGLYQFFSANPELIPSNVTMHLVKYACSRENVHTMDNYKIPVQGKGFTNPDYVKTIKAFGDKAIENARDVYDIDGKEINAAGVRQAKYNCNFEFEANKLQPMKFVNNFNSPAELIKAHEQAIEKIKLGAFELYKAKINVITTLSNEQKVFLIRAKAQQWNLLCDEGQWNNPIFTLQAIMAEKSDRFFLPQYAFTAKMLIKNYQEARENSKDGSRFWEQINAFIKSMNALKDPMRNAQSIFEVFKKNSYSVKAVDGFVKKVVEVMNALMDKYPQRSTTEMVACMRILESNLQKMVNFFSLVDRLITIYRGCTTAGLNFNKILTVVREALEEMKMITDSGDNYSTTLIDLDKVITAANNRLESLTYPKEYSTKNFHSQESYKVVGAYLCMQSQLIQKLDTKASTALAI,not soluble
2,MPWGWIEALLGHACPGCGGPLDLPALCGRCRAGLEAFSTGEMVYLGHYARVGPLVRALKYGRREALARALAEPLARAVAARGWRLQGVTAVPTLPHRLALRGYNPPEVLARALAKALGVPYRPVLFRRRYTPGQPTRGFKERRFLPGDLFGARVRVEGAWLLVDDVLTSGATFLRARGALLEAGAAHVYGAFLAVRDPRALGPYR,soluble
3,MPYIALEDGFLRSFGTGRHFPPLSLVVDRLGIYYDATRESELECLLASSRTLLDGIEDAVPEAMELVRERRLSKYNHGGFLATGVPADGRRRVLVVDQTEGDMSVTLGCAEAATFEAMLAAARAENPGALICVKTHPEVAAGDKSGYLSRVTDDADTLALRHDMNPLALLEQMDRVYVVSSQMGFEALMLDKPVICFGMPWYAGWGVTDDRQRCERRGRARSVEELFAGAYFHYTRYLDPVLH,not soluble
4,MPYLIIEHLEKISEWLLLEYRHTAQWWGDKLIFTNVKEPEERKILAEIGSVVAESVTKLPFDKSKLIILDPFAEEELKPEDIEEDSLIVVGGILGDFEFTGKTKEFITSKIEGAKARHIGSVQFSIDGASIIAKLISEGKRLEEIEYVESPTIKLDEFSEITLHYAVPKVNGKLLLTPGLIELQKKELGYMEEDVEDEELEKLFGGSLEHHHHHH,soluble
5,MQAEKLAYYPFTSEASAYVGNLGISLESLLNSRAYRAARARGIERVKEALEGEIKKSPVSGEAQVLSELLSYPFARMLVACVDDQLFTRRYALAEAKAAYTFLRNENPDFLLEFGDDFGISADSQDSYFSMHFTDYIRFSNSLKDPSWKLTNRQLRAGKIKITKEEFSRLLEEAVRERIEQSFPVPEIPPEVSSFCSPYAAEIKDKFEVQKKKFGSTDFGAVKPELFPPCIAYALANVQGGVNLAHSMRFAMTSFLLNVGMSVDEILNLFNISPDFNAEKTLYQIEHIAGATGNTYKPPACDTMRTYGNCVGKDRLCEKISHPLGYYEKKVFIKNKEGEEAQGKEQGKEKDDGKEKENGKESEVKKKKEKLEHHHHHH,soluble
6,MQCLQFDSINLIEHILPDVRFWLVPPSRTHHLHEHFHHISWQTEAIPQTESKPDKPWFALPQTSERQKPEHILVIGAGISGAATAHALASHGISVTVLEARKAAQAASGNRQGLLYAKISPHDTEQTELLLAGYGYTKRLLGHILPESETWGGNGIIHLNYSRTEQQRNHELGLQKHHNHLYRSITSAEAEKIAGIPLSVPYDHPSCGLYWQHGVWLNPPAFVRTLLNHPLIGLHEDTPLTDISHDGEKWIASTPNGTFTATHIIYCTGANSPYLPETNLAALPLRQIRGQTGLTPSTPFSEQLRCAVSGESYISPSWHGLHCYGASFIPNSSHTGWNEAEEASNRQALAHLNPALSESLFAANPNPQKHQGHAAIRCDSPDHLPLVGALGDIAAMRQTYTKLALDKNYRIDTPCPYLPNAYVNTAHGTRGLATAPICAAAIAAQILGLPHPFSQRLRHALHPNRTIIRAIVRRKDLTPLEHHHHHH,not soluble
7,MQDELFETEKIPPKNTKNTKNAPKKSFEEHVHSLERAIDRLNDPNLSLKDGMDLYKTAMQELFLAQKLLENAYLEHEKLQTPDQKA,not soluble
8,MQEKDCIFCKIVRGEVPAKKVYEDDKVLAFHDINPVAPVHILIIPKKHIMGIQTLEPEDECLVGHMFYVARKIAEDLGIAPDENLNKGYRLVFNVGKDAGQSVFHLHLHLIGGREMSWPPG,soluble
9,MQFEERLQQLVESDWSLDQSSPNVLVIVLGDTARKYVELGGLKEHVTTNTVAGHVASRERVSVVFLGRVKYLYMYLTRMQAQANGPQYSNVLVYGLWDLTATQDGPQQLRYLALCYGSASVCHLKLNSIQNRLLVACLPGYCDSGTILSDSCIVLHAIS,not soluble
10,MQFHAVYQNNDTKANLDFALNISTINFATLQELQNSFDLQGSDLTAGLFYKYSVNKLTSGTNDLTTIAKTALGENIIQKQVSLTQSIIKPRLEAAKTQYKQDIIAPFAKERQAALAQHL,not soluble
11,MQFSTVASIAAVAAVASAAANVTTATVSQESTTLVTITSCEDHVCSETVSPALVSTATVTVDDVITQYTTWCPLTTEAPKNGTSTAAPVTSTEAPKNTTSAAPTHSVTSYTGAAAKALPAAGALLAGAAALLL,soluble
12,MQHAKIFFVIASVKFLMILSIHNYTQMSKTCKLRTVARKTVMEFEGVEDFIVPFVNYTKRFMVAPDKKLISCTLRKSMSQLAENIMCLLYDEQQYFANSQSLNDTWKDERKCEHDRSYLNPSETLLNDTDTVRFAFIRDPFQRFISFYLDKCVREQKCYNCGNNMTCVLKNFYWGLKKVQRRWDGREQPEYVEIHAAPLSWNCDFYKDLSKWQLIPIGSDKTERSSAITQTEKILRKQRVNETLVDMVVDGMKDGDTDHSTYKSAHRLEAERQIREDPYIREMLHKIYYFDYVVFPFNRDSLDLKFQDTSCTIPLP,not soluble
13,MQHECNTDYTIAKYIPYIKPKYVTQEGTTVLYVRYNYNRNKRTLISTGYNIKPEHWDAKRKWIKRACPHYEEIDACLIKITSKLGDILTYAKVNGIDPTVDFVLLELEKNREYDLRPNRVDMFDALERYIVEKAPSVSADQIKDYRTLRKHLTAFKEYSSQPVTFRNLNLTFYNEFMDYLFHKVVKPNGTVGLLTNSAGKIIRLLKGFVNYQIVKGIIPPIDLKNFKVVEEETDAIYLNEKELAAIYELDLSDDKQLEEIRDVFITGCFTGLRYSDLSTLSPEHIDLDNENINLKQRKVHKAVVIPMIDYVPEILKKYNYDLPKIPRYMFNERVKELGRKIKLSQKIEVVRRKGKEREKRVYEKWEMISSHTCRRSFCTNMYLSGFPAAELMRISGHKSPSAFMRYIKVDNQQAAKRLKELRAKLAR,not soluble
14,MQKEKLSALMDGETLDSELLKALTHDPEMQKTWESYHLIRDSMRGDTPDVLHFDISARVMAAIENEPVRQVSPLIPEAQPAPQQWQKMPFWKKVRPWAAQLTQMGVAACVSLAVIVGVQHYNGQSETSQQPETPVFNTLPMMGKASPVSLGVPSEAAPVGSQQQQVQEQRRRINAMLQDYELQRRLHSEQLQFEQAQTQQAAVQVPGIQTLGTQSQ,not soluble
15,MQKFDTRTFQGLILTLQDYWARQGCTIVQPLDMEVGAGTSHPMTCLRELGPEPMAAAYVQPSRRPTDGRYGENPNRLQHYYQFQVVIKPSPDNIQELYLGSLKELGMDPTIHDIRFVEDNWENPTLGAWGLGWEVWLNGMEVTQFTYFQQVGGLECKPVTGEITYGLERLAMYIQGVDSVYDLVWSDGPLGKTTYGDVFHQNEVEQSTYNFEYADVDFLFTCFEQYEKEAQQLLALENPLPLPAYERILKAAHSFNLLDARKAISVTERQRYILRIRTLTKAVAEAYYASREALGFPMCNKDKLEHHHHHH,not soluble
16,MQKISRIVNSIYLTAELTAGTANTYDLIAEFFNFGPDSYNKLQSIDMKELKSGLEEIVSIHSELTYTDIDKRAEQRFRHLIEIRKEVEGVGSLEDIKDAQANYKSELETFKKTTFDTAGIEEFQNAVKNFIGAAADVEKYSNLEKLTDVDIMYARPLIYTLKTSIENLAKSYSSINSFDDFEKIRNPSEFVDPISKIVSGYKKYNASRTTIERDGNFAKGMQSNANNMKRLENVASVFEGLGSFVKNLQAVIDVRQTMHLPKYTVGFIDGTFDPKKVVTDLEDDWVQSVTHEMDLNRTINLLLPIGDHVSAIEASFLSSSSKQSKFFTGFKSSETEVSPVDGSIDSIISTSKKVSECIIAPLTYLESIKEVEILLQAIESLKKTVDTLVGTKELVNWVKTNDVVLKEVEALCSYTDEEKKDFESSVPIKLKGLKSSENYTSLIKTLNQSSLFADAVFSEKLSTTGQETAYILGGLQSLDAFYNSATDHIAFFDCLLNVAYYDLIPLAIDTLNKVRKMDVQPIRDGIDVVNDLFNVSNQLDELKTKLRELNDPNFSIAETPLSNPSLHTTTIGLSVRGVIRMKDEIDHRSDFDVVIENAEMVDQEMKNTGKKAINMVEFGSRLKKLKSELEGWKSNITVGGAHRIRRSTPSLADYAHIFQNALKVGGVDDDLKKLMDAVKDFEKTGKDAATKVKLKEVIASLNSLNSIGLQLSSFATPFTAIGQSFSALDAFFVSNGKIITTPAPIVSSSDIRSPTIEDATALVSFLYKLLNDFMKEEGDKGATNNGKLPLKAMYQFCKSILRIANLAPNNAIVESEKYSEQDRYSDVLCGMDNRILIDEDVCRRCYFKDQYINANYLELPNGNRMILTQAPMSRTEHFKPEKDKKRKNLYSLSDEEEEISYLVQTVDKFYQTIVQTGTEVVAMLCDFNEEGVEKCSSYFPLEKDGKQKFHNVNVCTTNVQHPSADVVLRTLVITSYLGEKKKTHTVKHYSYKGWIEKNAPELPREILNIFRVARNSKSLVVHCSNGIGRSAAFVSWELCYHFVPVNFEICDFSVAEFVYQKMIRSLDTTSTVNLDFLSLLTELRHSRPRAIHTPMQLAFSIMMVLDFVMNNFPKGEMEAKYQEIRKSYLHARQMMHKDLEFDGSDGKTVDIALDEDGHGIPEKKGKKKTNKKAAQQASVKKDEKSKKKSKKDSKKGSKMDMKTAEEGMKSLQKKAA,not soluble
17,MQKLIMGNWKMNGNSTSIKELCSGISQVQYDTSRVAIAVFPSSVYVKEVISQLPEKVGVGLQNITFYDDGAYTGEISARMLEDIGCDYLLIGHSERRSLFAESDEDVFKKLNKIIDTTITPVVCIGESLDDRQSGKLKQVLATQLSLILENLSVEQLAKVVIAYEPVWAIGTGVVASLEQIQETHQFIRSLLAKVDERLAKNIKIVYGGSLKAENAKDILSLPDVDGGLIGGASLKAAEFNEIINQANKICTE,not soluble
18,MQLNATQLQAALPWDSLIEALKDIFVREVCSPVRHHHSINVPDKLSATLLLMPAWLEGEYLGIKQVNVFPSNNVSNIPALSSHYMLSCGKTGQPLMQLDGNELTARRTAAASALASAYLSREDARVMLMVGSGRMARRLITAHMSVRPIKIVQVWDRKEEKAQTLVTELKESGINAEVCKPDNLQAAAQQADIISCATMATSPLILGKWLKPGAHLDLVGSFTPTMRETDNAAMQLCSVFVDTRAGALSETGDLIIPIRDGAITQEKIIAEFTQLCSGEHRGRADLANPDNSITLFKSVGDSREDLAAAILAFEQCNQR,not soluble
19,MQLRKKLHEAIVDGEEDDCPKRKIKKLDIQVDAATKVFSNQHILHDIIEYTVDGDKSILDNLRLRLVSRSFNNVVLSKVRAEFKMVQVCPYQQPEGADEKEEPEYDESNDIEDRSFMINDRRTWFSQVPRFFEFLNSVARIRVRDLLFSGFTSPDQRIHECILYSLLDGNWYSLNSYKGADELCNGCAVCSGNCFPLLAEIALHCVTMVGSREEAFSRLTKMITQDVNCDQLDLVFSDRCMWSKGTLAHPREVIDRIVKAWRVKSINIRFMTEYSSIDHEMWSNKRIFTEMRFDEMFVTDHNIIRPRHERDHFERVEVDMQAGDEIATCFAESMGMFEQSGMSATAFQNVCANVKRIFPTQDMYLILPTELAHVASVEFDGFCKALLEFAWKDERTARHSRLFFRLYTFGITEEQVLRQTENQFKINCRPVAAMLSDSSVRRSFLQWLPGSTSTFDRSLLSFTDVWNNCVLHLEVCIEADC,not soluble
